Results reported in the nanobody polyreactivity screen of Harvey et al. (2022).

assay: yeast display, Sf9 membrane polyspecificity reagent, FACS + sequencing; frameworks hold sequencing errors
How it was run: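 Polyreactivity labels are assigned by the sorting gate from which each nanobody was recovered. The gates were low and high (top ~1%), set on anti-HA fluorescence for expression and streptavidin fluorescence for reagent binding. Before sorting, galactose-induced (36–48 hours) yeast display cells were stained for 1 hour at 4 °C with 10% biotinylated, detergent-solubilized Sf9 membrane reagent.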

Sequence | polyreactivity (PSR sort gate)
QVQLVESGGGLVQAGGSLRLSCAASGFTFNSYAMGWYRQAPGKERELVAAITWRGGSTYADSVKGRFTISRDNAKNTVYLQMNSLKPEDTAVYYCNAVSDVKRYDYWGQGTQVTVSS | high polyreactivity
QVQLVESGGGLVQAGGSLRLSCAASGFTFNTNAMGWYRQAPGKETELVAAITWTGGRTYYADSVKGRFTISRDNAKNTVHLQMNSLKPEDTAVYYCAAESFGYSIDITDHEYWGQGTQVTVSS | high polyreactivity
QVQLVESGGGLVQAGGSLRLSCAASGFTFNYNARGWYSQAPGNDRELVAAIRRSGGSTYYADSGKGRFTISRDNAKNTVYLQMNSLKPEDTAVYYCAARQSFLYGYWGQGTQVTVSS | high polyreactivity
QVQLVESGGGLVQAGGSLRLSCAASGFTFNYYAMGWYRQAPGKEREFVAAISRSAGSTYYADSVKGRFTISRDNAKNTVYLQMNSLKPEDTAVYYCAADPRSKGFYYGYDYWGQGTQVTVSS | high polyreactivity
QVQLVESGGGLVQAGGSLRLSCAASGFTFNYYAMGWYRQAPGKERELVAAISGRGGSTYYADSVKGRFTISRDNAKNTVYLQMNSLKPEDTAVYYCAADYWYDYYSTEYDYWGQGTQVTVSS | low polyreactivity
QVQLVESGGGLVQAGGSLRLSCAASGFTFPANDMGWYIQAPGKERELVATITWSGGNTYYADSVKGRFTISRDNAKNTVYLQMNSLKPEDTAVYYCAKDYDPYHEQQSSEHDDYWGQGTQVTVSS | low polyreactivity
QVQLVESGGGLVQAGGSLRLSCAASGFTFPDNAMGWYRQAPGKERELVAAITTSGGRTYYADSVKGRFTISRDNAKNTVYLQMNSLKPEDTAVYYCARPSRRTGREYGYWGQGTQVTVSS | high polyreactivity
QVQLVESGGGLVQAGGSLRLSCAASGFTFPDYAMGWYRQAPGKERELVAAISSDCSTYYADSVKGRFTISRDNAKNTVYLQMNSLKPEDTAVYYCAAYVVWLYGYDYWGQGTQVTVSS | low polyreactivity
QVQLVESGGGLVQAGGSLRLSCAASGFTFPGNAMGWYRQAPGKEREFVAAITRSSGSTSYADSVKGRFTISRDNAKNTVYLQMNSLKPDDTAVYRDYWGLGTQVTVSS | low polyreactivity
QVQLVESGGGLVQAGGSLRLSCAASGFTFPLNAMGWYRQAPGKERELVAAITNGGTTYYADSVKGRFTISRDNAKNTVYLQMNSLKPEDTAVYYCNAQATPYEGRYDESEYDYWGQGTQVTVSS | low polyreactivity
QVQLVESGGGLVQAGGSLRLSCAASGFTFPLNAMGWYRQAPWKERELVAAITNGGTTYYADSVKGRFTISRDNAKNTVYLQMNSLKPEDTGVYYCAAYTYRYGSFKYGYWGQGTQVTVSS | low polyreactivity
QVQLVESGGGLVQAGGSLRLSCAASGFTFPNNAMGWYRQAPGKERELVAAITWSGGSTYADSVKGRFTISRDNAKNTVYLQMNSLKPEDTAVYYCNTRGTYLSKTLPSAYDYWGQGTQVTVSS | low polyreactivity
QVQLVESGGGLVQAGGSLRLSCAASGFTFPNYAMGWYRQAPGKERELVAAITSGGGRTNYADSVKGRFTISRDNAKNTVYLQMNSLKPEDTAVYYCNAEKTYLGSRYRPYNYWGQGTQVTVSS | low polyreactivity
QVQLVESGGGLVQAGGSLRLSCAASGFTFPNYAMGWYRQAPGKERELVAAITSGGGRTNYADSVKGRFTISRDNAKNTVYLQMNSLKPVDTAVYYCAKTRVRGSEFGYWGQGTQVTVSS | low polyreactivity
QVQLVESGGGLVQAGGSLRLSCAASGFTFPRNVMGWYRQAPGKERELVATISSGGRTNYADSVKGRFTISRDNAKNTVYLQMNSLKPEDTAVYYCAARVYTYYYDLHKRYYWGQGTQVTVSS | high polyreactivity
QVQLVESGGGLVQAGGSLRLSCAASGFTFPRYAMGWYRQAPGKERELVAAISYRGGSTYYADSVKGRFTISRDTAKNTVYLQMNSLKPEDTAVSYCNAVGGPVRGYPYDYWGQGTQVTVSS | high polyreactivity
QVQLVESGGGLVQAGGSLRLSCAASGFTFPRYAMGWYRQAPGKERELVAAITTSVGNTYYADSVKGRFTISRDNAKNTVYLQMNSLKPEDTAVYYCSTIYDHFDYWGQGTQVTVSS | low polyreactivity
